# Measured values taken from paper PMC10054981 (bioRxiv, 2023).
# B1: Speckle-type POZ protein (SPOP) wild type, residues 28-359 (domain or fragment)
# chain: KVVKFSYMWTINNFSFCREEMGEVIKSSTFSSGANDKLKWCLRVNPKGLDEESKDYLSLYLLLVSCPKSEVRAKFKFSILNAKGEETKAMESQRAYRFVQGKDWGFKKFIRRDFLLDEANGLLPDDKLTLFCEVSVVQDSVNISGQNTMNMVKVPECRLADELGGLWENSRFTDCCLCVAGQEFQAHKAILAARSPVFSAMFEHEMEESKKNRVEINDVEPEVFKEMMCFIYTGKAPNLDKMADDLLAAADKYALERLKVMCEDALCSNLSVENAAEILILADLHSADQLKTQAVDFINYHASDVLETSGWKSMVVSHPHLVAEAYRSLASA
# B2: SPOP R354H, residues 28-359 (domain or fragment)
# chain: KVVKFSYMWTINNFSFCREEMGEVIKSSTFSSGANDKLKWCLRVNPKGLDEESKDYLSLYLLLVSCPKSEVRAKFKFSILNAKGEETKAMESQRAYRFVQGKDWGFKKFIRRDFLLDEANGLLPDDKLTLFCEVSVVQDSVNISGQNTMNMVKVPECRLADELGGLWENSRFTDCCLCVAGQEFQAHKAILAARSPVFSAMFEHEMEESKKNRVEINDVEPEVFKEMMCFIYTGKAPNLDKMADDLLAAADKYALERLKVMCEDALCSNLSVENAAEILILADLHSADQLKTQAVDFINYHASDVLETSGWKSMVVSHPHLVAEAYHSLASA
# Experiments:
# [1] = target: fluorescently labeled peptide derived from a SPOP-binding motif from the substrate Puckered; experiment: fluorescence polarisation
# [2] = target: the molecule itself; experiment: CG-MALS
# [3] = target: B1; experiment: fluorescence polarisation
# [4] = target: SPOP R221C, residues 28-359 (human, UniProt O43791 28-359, R221C); experiment: fluorescence polarisation
# [5] = target: B2; experiment: fluorescence polarisation
molecule,measurement,setting,value
"SPOP mutBACK (Y353E), residues 28-359 (from UniProt O43791 28-359) (domain or fragment)",Kd,[1],4.3 µM
"Speckle-type POZ protein (SPOP) wild type, residues 28-359 (from UniProt O43791 28-359) (domain or fragment)",Kd,[1],9.8 µM
"SPOP R354H, residues 28-359 (from UniProt O43791 28-359) (domain or fragment)",Kd,[1],5.1 µM
"SPOP R221C, residues 28-359 (from UniProt O43791 28-359) (domain or fragment)",Kd,[1],5.9 µM
B1,Kd,[2],2.7 µM
"C-terminal intrinsically disordered region (IDR) of DAXX (cDAXX), fluorescently labeled (domain or fragment) SPMSSLQISNEKNLEPGKQISRSSGEQQNKGRIVSPSLLSEEPLAPSSIDAESNGEQPEELTLEEESPVSQLFELEIEALPLDTPSSVETDISSSRKQSEEPFTTVLENGAGMVSSTSFNGGVSPHNWGDSGPPCKKSRKEKKQTGSGPLGNSYVERQRSVHEKNGKKICTLPSPPSPLASLAPVADSSTRVDSPSHGLVTSSLCIPSPARLSQTPHSQPPRPGTCKTSVATQCDPEEIIVLSDSD",Kd,[3],1.2 µM
same,Kd,[4],3.2 µM
same,Kd,[5],3 µM
B2,Kd,[2],26.9 µM
